In publication doi:10.1101/2022.01.28.478199 (bioRxiv, 2022):
“And” between values parts separate entries of the source, which are not always exact repeats. Equal values may be shown once.

B1: WT Hsp78 expressed and affinity purified from E. coli (natural protein)
chain: not shown
B2: Hsp78-6xHis (wild-type Hsp78 with a C-terminal 6x polyhistidine-tag) (natural protein)
chain: not shown

What was measured:
SEC = target: the molecule itself; test: SEC
native gel or EMSA = target: the molecule itself; test: native gel or EMSA

Protein	stoichiometry N (SEC)	stoichiometry N (native gel or EMSA)
B1	2 and 3	
B2		3 and 6
